Measurements: the nanobody polyreactivity screen of Harvey et al. (2022)

Assay: yeast display, Sf9 membrane polyspecificity reagent, FACS + sequencing; frameworks hold sequencing errors
Summary of the method: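 Using colony PCR, genes from sorted yeast display clones were amplified, then sequenced on MiSeq at 2 × 250 and filtered by CDR length. The clones had been stained with 10% biotinylated, detergent-solubilized Sf9 membrane reagent for 1 hour at 4 °C and sorted by FACS into low and high (top ~1%) gates on anti-HA and streptavidin fluorescence. Polyreactivity labels come from the gate of origin.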

| Sequence | polyreactivity (PSR sort gate) |
| --- | --- |
| QVQLVESGGGLVQAGGSLRLSCAASGYSFYINVMGWYIQAPGKERELLAAISISGDSTYYSDSVKGRFTISRDNAKNTVYLQMNSLKPDDTALYYCAADTVSSWYYPLEDEYWGQGTQVTVSS | high polyreactivity |
| QVQLVESGGGLVQAGGSLRLSCAASGLIFTWNAMGWYRQAPGKERELVAAISTGGSTSYADSVKGRFTISRDNAKNTVYLQMNSLKPEDTAVYYCARDSSIWSHGSWYDYWGQGTQVTVSS | low polyreactivity |
| QVQLVESGGGLVQAGGSLRLSCAASGLTFQVNDMGWYRQAPGKERELVAGITFSGGSTYYPDSVKWRITISRDNAKTTVYLQMNSLKPEDTAVYYCADDTIIGYLYHNVVPTFDYWGQGTQVTVSS | low polyreactivity |
| QVQLVESVGGLVQAGGSLRLSCAASGRTFRFYTMGWYRQAPGKERELVADISWTSGRTYYADSVKGRFTISRDNAKNTVYLQMKSLKPEDTAVYYCAAYFFSRYSLYDYWGQGTQVTVSS | high polyreactivity |
| QVQIVESGGGLVQAGASLSLSCAASGSIFGTNAMGWYRQAPGKERELVAAISSAGASTYYADSVKGRFTISRDNAKNTVYLQMNSLKPEDTAVYYCARGYTYQSSSFYYWGQGTQVTVSS | low polyreactivity |
| QVQLVESGGGLVQAGGSLRLSCAASGLTLYYNAMGWYRQAPGKERELVAAMSGSGGNTYYADSVKGRFTISRDNAKNTVYLQMNSLKPEDTAVYYCNAYTHSRNPERREYYWGQGTQVTVSS | high polyreactivity |
| QVQLVESGAGLVQAGGSLRLSCAASGFTFDYYAMGWYRQAPGKESELVATINGASSTNYADSVKGRFTISRDNAKNTVYLQMNSLKPEDTAVYDCNARYYGPDFVLAYDYWGQGTQVTVSS | low polyreactivity |
| QVQLVESGGGLVQAGGSLRLSCAASGSIFVNNAMGWYRQAPGKERELVAAISSRGGSTYYADSVKGRFTISRDNAKNTVYLQMYSLKPEDTAVYYCAAEYDGPYYSFYPEQRYYWGQGTQVTVSS | low polyreactivity |
| QVQLVESGGGLVQAGGSLRLSCAASGFTFSMYGMGWYRKAPGKERELVAAIRSGGSTNYADSVKGRFTISRDNAKNTVYLQMNSLKPEDTAVYYCAADVIPDGVKKPRMYYWGQGTQVTVSS | low polyreactivity |
| QVQLVESGGGLVQAGGSLRLSCAASGFIFQTNVMGGYRQAPGKERELVAAISSGYSTYYADSVKGRFTISRDNAKNTVYLQMNSLKPEDTAVYNCAADVLGTTTTVGGFNYWGQGTQVTVSS | low polyreactivity |
| QVQLVESGGGLVQAGGSLRLSCAASGRIFYYYAMGWYRQAPGKERELVAAISWRGTSTYYADSVKGRFTISRDNAKNTVYLQMNSLKPEDTAVYYCAARYTKGMYYWGQGTQVSVSS | high polyreactivity |
| QVQLVESGGGLVQAGGSLRLSCAASGGIFVLNAMGWYRQAPGKERELVATITSSGGSTYYADSVKGRFTISRDNAKNTVYLQMNSLKPEDTAVYYCNADWYLWSTFAQGYGYWGQGTQVTVSS | high polyreactivity |
| QVQLVESGGGLVQAGGSLRLSCAASGSTFVFYTMGWYRPAPGKERELVAGISRNGGSTYYADSVKGRFTISRDNAKNTVYLQMNSLKTEDSAVYYCAALTWSRAYYSRKFYYWGQGTQVTVSS | high polyreactivity |
| QVQLVESAGGLVQAGGSLRLSCAASGFIFPRYAMGWYRQAPGKERELVAAISYSGGSTYYADSVKGRFTISRDNAKNTVYLQMNSLKPEDTAVYYCNAYFLSQYQRAYRDDYWGQGTQVTVSS | high polyreactivity |
| QVQLVESGGGLVQAGGSLRLSCAASGSTFWAYAMGWYRQAPGKERELVATITWSVGGTYYADSVKGRFTISRDNAKNTVYLQMNSLKPEDTAVYYCATDAYVKGVYEISEDRVDYWGQGTQVTVSS | low polyreactivity |
| QVQLVESGGGLVQAGGSLRLSCAASGIIFTDYAMGWYRQAPGIERELVAAISGSGGSTYYADSVKGRFTISRDNAKNTVYLQMNSLKPEDTAVYYCAAATHIFLQVYYAYGYWGQGTQVTVSS | high polyreactivity |
| QVQLVESGGGLVQAGGSLRLSCAASGSTFAYYAMGWYRQAPGKERELVAAISWSGGSTYYADSVKGRFTISRDNAKNTVYLQLNSLKPEDTAVYYCAAGVPSTFQYSYWDYNYWGQGTQVTVSS | low polyreactivity |
| QVQLVESGGGLVQAGGSLRLSCAASGFTFGTYAMGWYRQAPGKERELVASIRTDDSTYADSVKGRFTISRDNAKNTVYLQMNSLKPEDTAVYYCAVDGYVIYVYDTYDYWGQGTQVTVSS | low polyreactivity |
| QVQHVESGGGLVQAGGRLRLSCAASGSTFQLYAMGWYRQAPGKERELVASISWSGGSTYYADSVTGRFTISRDNAKNTVYLQMNSLKPEDTAVYYCNADFWWRYRPGAVFRSYGYWGQGTQVTVSS | low polyreactivity |
| QVQLVESGGGLVQAGGSLRLSCAASGSIFGYNDMGWYRQAPGKERELVAAITTSGDSTYYADSVKGRFTISRDNAKNTVYLQMTSLKPEDTAVYYCNGDGEVVDWYHPYYVEYDYWGQGTQVTVSS | low polyreactivity |
| QVQLVESGGGLVQAGGSLRLSCAASGFTFWEYAMGWYRQAPGKERELVAAIRDRGVNTYYADSVKGRFTISRDNAKNTVYLQMNSLKPVDTAVYYCAKSTRRGGVALGEYDYWGQGSQVTVSS | low polyreactivity |
| QVQLVESGGGLVQAGGSLPLSCAASGRTFWAYAMGWYRQAPGKERELVAAITTSGGSTNYADSVKGRFTISRDNAKNTVYLQMNSLKPEDTAVYYCNADPTYHVVNGVGYWGQGTQVTVSS | low polyreactivity |

| Sequence | polyreactivity (PSR sort gate) |
| --- | --- |
| QVQLVESGGVLVQSGGSLRLSCAASGSTFAYYAMGWYRQAPGKERELVAPISWSGGSTYYADSVKVRFTISRDNAKNTVYLQMNSLNPEDTAVYYCNKRNVLDYDYWGQGTQVTVSS | low polyreactivity |
| QVQLVESGRGIVQAGGSLRLSCAASGSIFGWYAMGWYRQAPGKERELVASNSVTAGSTYYADSVKWRFTISRDNAKNTVYLLMYSLKPVYTAVYYCASDDDTADAVQLFYYWGQGTHVTVSS | low polyreactivity |
| QVQLVESGGGLVQAGGSLRLSCAASGSIFYTYVMGWYRQAPGKVREFVAAISKSGGSTYYADSVKGRFTISRDNAKNPVYLQMNSLIPEVTAVYYCAAYPIVSIQRRARGNSWGQGTQVTVSS | high polyreactivity |
| QVQLVESGGGLVQAGGSLRLSCAASGFTFGDYAMGRYRPEPGKERELVAAISSGGNTNYADSVKGRFTISRDNAKHTVYLQMNRLKPEDTAVNNCAPRRQSKGYKLNYWGHGTQVTVSS | high polyreactivity |
| QDQLVETLGGLVQAGASLRLSCAASGSIFGNNAMVWYRQEPGKERELVAAISGTGGTTYADSVKGRFTISRDNAKNTVYLQMNSLKPEDTAVYYWALRVWVRDYPFGYARYGYWGQGTQVTVSS | low polyreactivity |
| QVQLVESGGGLVQAGGSLRLICAASGRTFDRYDMGWYRPAPGKERALVATISSSGGSTYYADSVKGRFTISRDNAKNTVYLQMNSLKPEDTAVYYCAADPSGYYWGQGSQVTVSS | low polyreactivity |
| QFQLVESGGGLVQAGGSLRLSCAASGSTFITNAMGCYRQAPGKERELVASITRGAGSTYYADSVKGRITISRDNAKNTVYLQMNSLKPEDTAVYYCRLAPRYRKGGYWGQGTQVTVSS | high polyreactivity |
| QVQLVESGGGLVQAGGSLRLSCAASGSTFLRNAMGWYRQAPGKERELVATISRTGGTTYYADSVKGRFTISRDNAKTTVYLQMNSLKPEDTAVYYCAAYSKYGQHYDYWGQGTQVTVSS | high polyreactivity |
| QVQLVESGGGLVQAGGSLRLSCAASGRIFTSNTMAWYRQAPGKERELVAAITSSGGSMYYADSVKGRFTLSRDNAKNTVYLQIISLKPEDTAVYYFAGDTIGYHYWYDYWGQGTQVTVSS | low polyreactivity |
| QVQLVESGGGLVQAGGSLRLICAASGRIYYGYAMGWYRQAPGKERELVSTITWSGGSTYYADSVKGRFTISRDNAKNTVYLQMNSLKPEDTAVYYCAAYSPYIYQAYRYDYWGQGTQVTVSS | low polyreactivity |
| QVQLVESGGGLVQAGGSLRLSCAASGITFDTYDMGWYRQAPGKERELVAAISSSGGSTYYADSVKGRFTISRDNAKNTVYLQMNSLKPEDTAVYYCAAVLLDDDYSYYYWGQGTQVTVSS | low polyreactivity |
| QVQLVDSAGGLVQAGGSLRLSCAAYGRTNYLYSMGWYRQAPGKERELVAAIRTGDGSTYYADSVKGRFTISRDNAKNTVYLQMISLKPEDTAVYYCAARVGKRYNWGQGTQVTVSS | high polyreactivity |
| QVQLVESGGGLVQAGGSLRLSCAASGSTFASYAMGWYRQAPGKERELVAAIRWRGGTTYYADSVKGRFTISRDNAKNTVNLQMNSLKPEDTAVYYCNADRYYLYYFWGQGTQVTVSS | low polyreactivity |
| QVQLVESGGGLVQAGGSLRLSCAASGRIFKVYAMGWYRQAPGKERELVAAITWSGVSTYADSVKGRFTISRDNAKNTVYLQMNSLKPEDTAVYYCAAYLRSPGDRQGYYYWGQGTQVTVSS | high polyreactivity |
| QVQLVESGGGLVQAGGSLRLSCAASGRTFNGYAMGWYRQAPGKERELVAAITWNGGRTSYADSVKGRFTISRDNAKNTVYLQMNSLKPEDTAVYYCATAVLYPYFFSNMDYWGQGTQVTVSS | low polyreactivity |
| QVQLVESGGGLVQAGGSLRLSCAASGSTFWGYTMGWYRPAPGKERELVAAITGSGGSTNYADSVKGRFTISRDNAKNTVNLQMNSLKPEDTAVYYCAADVFTARRRYDYWGQGTQVTVSS | low polyreactivity |
| QVQLQERGGGLVQAGGSLRLSCAASGNIFEADIMGWYHQAQGKDRELVASITDGGSTNYADSVKGRFTINRDNAKNKVSRQMNSLKPEDTALYYCAAYGNARLKEHYYWGQGTQVTVSS | high polyreactivity |
| QVQLVESGGGLVQAGGSLRLSCAASGSTFGRNAMGWYRQAPGKERELVAAISSGGRTYYADSVKGRFTISRDNAKNTVYLQMNSLKPEDTAVYYCARDDYGTLVKLYVRGFNYWGQGTQVTVSS | low polyreactivity |
| QVQLEESGGGLVQAGGSLRFSCAASGSIFDYNAMGWYRQAPGTERELVAAITYSGGTTYADSVKGRFTISRDNAKNTVYLQMNSLKPEDTAVDYCAATSYDRFAYYYWGQGTQVTVSS | low polyreactivity |
| QVQLVESGGGLVQAGGSLRLSCAASGSIFAVYAMGWYRQAPGKERELVAVITRSGGSTYYADSVKGRFTISRDNAKNTVYLQMNSLKPEDTEVYYCAARSGYGYTRYEYWGQGTQVTVSS | high polyreactivity |
| QVQLVESGGGLVQAGGRLRLSCAASGSTFVGNAMGWYRQAPGKERELVAAIRKSGGRTYYADSVKGRFTISRDNAKNTVYLQMNSLKPEDTEVYYCAVDRLLYYLIYYRAGVEGGYWGQGTQVTVSS | high polyreactivity |
